Measured values taken from paper doi:10.1101/2022.06.01.494398.

Biological target: CERTL (long isoform of the ceramide transport protein CERT; GPBP, COL4A3BP) (UniProt Q9Y5P4)
Experiment: SEC-MALS of self-association
Details: reference: hyperphosphorylated wild-type StrepII-CERTL (CERTLP); sites S132

Sequence of CERTL (long isoform of the ceramide transport protein CERT; GPBP, COL4A3BP) (Q9Y5P4 whole entry S132A, canonical isoform): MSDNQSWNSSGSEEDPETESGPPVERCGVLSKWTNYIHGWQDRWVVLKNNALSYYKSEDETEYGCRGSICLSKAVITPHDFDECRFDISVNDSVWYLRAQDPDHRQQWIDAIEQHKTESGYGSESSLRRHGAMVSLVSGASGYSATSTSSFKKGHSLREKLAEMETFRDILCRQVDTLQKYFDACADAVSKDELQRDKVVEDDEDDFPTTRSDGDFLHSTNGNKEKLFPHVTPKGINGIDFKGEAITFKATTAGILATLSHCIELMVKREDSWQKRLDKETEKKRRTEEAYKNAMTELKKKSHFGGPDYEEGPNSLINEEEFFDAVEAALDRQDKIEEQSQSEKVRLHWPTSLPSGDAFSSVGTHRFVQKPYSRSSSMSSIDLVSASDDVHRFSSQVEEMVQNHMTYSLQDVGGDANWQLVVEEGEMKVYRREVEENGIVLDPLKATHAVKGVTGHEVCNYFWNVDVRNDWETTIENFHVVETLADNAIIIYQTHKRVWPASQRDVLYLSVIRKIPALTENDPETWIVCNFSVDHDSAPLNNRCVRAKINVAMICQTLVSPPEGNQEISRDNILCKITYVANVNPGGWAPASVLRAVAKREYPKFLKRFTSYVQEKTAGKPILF

Substance: CERTL (long isoform of the ceramide transport protein CERT; GPBP, COL4A3BP) (from UniProt Q9Y5P4) StrepII-CERTL S132A (hypophosphorylated)
- other: observed mass (expected trimer 215.7): same; reference 184.3
